# Test: yeast display, Sf9 membrane polyspecificity reagent, FACS + sequencing; frameworks hold sequencing errors
# Procedure, shortened: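 Genes from sorted yeast were amplified by colony PCR, read by MiSeq 2 × 250 sequencing and filtered on CDR length. These cells carried a synthetic nanobody library in Saccharomyces cerevisiae BJ5465 and were sorted by FACS into low and high (top ~1%) gates on anti-HA and streptavidin fluorescence. Polyreactivity is labelled according to the gate of origin.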
row,Sequence,polyreactivity (PSR sort gate)
1,QVQLVESGGGLVQAGGSLRLSCAASGFTFPYYTMGWYRQAPGKERELVATISYSGGRTYYADSVKGRFTISRDNAKNTVYLQMNSLKPEDTAVYYCNKVVRLQSRYDYWGQGTQVTVSS,high polyreactivity
2,QVQLVESGGGLVQAGGSLRLSCAASGFTFQAYAMGWYRQAPGKERELVAAIRSRGDSTYYADSVKGRFTISRDNAKNTVYLQMNSLKPEDTAVYYCNVLGYSYWGQGTQVTVSS,high polyreactivity
3,QVQLVESGGGLVQAGGSLRLSCAASGFTFQFNAMGWYRQAPGKERELVAAITWSGDSTYYADSVKGRFTISRDNAKNTVYLQMISLKPEDTAVYYCNADYGWVDTYTNYDYWGQGTQVTVSS,low polyreactivity
4,QVQLVESGGGLVQAGGSLRLSCAASGFTFQGNVMGWYRQAPGKERELVAVITSGGSTYYADSVKGRFTISRDNAKNTVYLQMNSLKPEDTAVYYCAARAYTWGPAGQVEKYYYWGQGTQVTVSS,high polyreactivity
5,QVQLVESGGGLVQAGGSLRLSCAASGFTFQYNAMGWYRQAPGKERELVAAITWTGTSTYADSVKGRFTISRDNATNTVYLQMNSLKPEDTAVYYCADSYYAPRWFRYDYWGQGTQVTVSS,low polyreactivity
6,QVQLVESGGGLVQAGGSLRLSCAASGFTFQYYPMGWYRQAPGKERELVAAISWSGGSTNYADSVKGRFTISRDNAKNTVYLQMNSLKPEDTAVYYCNAVHYYVEYDYWGQGTQVTVSS,high polyreactivity
7,QVQLVESGGGLVQAGGSLRLSCAASGFTFRANAMGWYRQAPGKERELVAAISQSGGRTYYADSVKGRFTISRDNAKNTVYLQMNSLKPEDTAVYYCAAPYSAKELYYRMDYWGQGTQVTVSS,high polyreactivity
8,QVQLVESGGGLVQAGGSLRLSCAASGFTFRANAMGWYRQAPGKERELVAVITGSGGRTYYADSVKGRFTISRDNAKNTVYLQMNSLKPEDTAVYYCNASGRKTNPYDYWGQGTQVTVSS,high polyreactivity
9,QVQLVESGGGLVQAGGSLRLSCAASGFTFRAYAMGWYRQAPGKASELVATISGRGGSTYYADSVKGRFPISRDNAKNTVYLQMNSLKPEDTAVYYCARRFWSEYVTGVGGYNFWGQGTQVTVSS,high polyreactivity
10,QVQLVESGGGLVQAGGSLRLSCAASGFTFRAYAMGWYRQAPGKEREFVAAISRRGGSTSYADSVKGRFTISRDNAKNTVYLQMNSLKPEDTAVYYCAATYQILTTSAHDSWGQGTQVTVSS,high polyreactivity
11,QVQLVESGGGLVQAGGSLRLSCAASGFTFRAYAMGWYRQAPGKERELVAAISTSGGSTYYADSVKGRFTISRDNAKNTVYLQMNSLKPEDTSVYYCAKRGLQGYWSPYNYWGQGTQVTVSS,high polyreactivity
12,QVQLVESGGGLVQAGGSLRLSCAASGFTFRDNAMGWYRQAPGKERELVAAISKSGGTTYYADSVKGRFTISRDNAKNTVYLQMNSLKPEDTAVYYCNAVNRYSGHSYYWGQGTQVTVSS,low polyreactivity
13,QVQLVESGGGLVQAGGSLRLSCAASGFTFRDYAMGWYRQAPGKERELVAAISRSGDSTYYADSVKGRFTISRDNAKNTVYLQMNSLKPEDTAVYYYAAKRRYTTYDYWGQGTQVTVSS,high polyreactivity
14,QVQLVESGGGLVQAGGSLRLSCAASGFTFRDYSMGWYRQAPGKERELVAAMSFSGGRTFYADSVKGRFTISRDNGKNTVYLQMNSLKPEDTAVYFCNAQYLTSRYYPRRNLDYWGQGTQVTVSS,high polyreactivity
15,QVQLVESGGGLVQAGGSLRLSCAASGFTFRFYAMGRYRQAPGKERELVAAISGSGGSTYYADSVKGRFTISRDNAKNTVFLQMNSLKPEDTAVYYCNAGRWLYWYDRSDYWGQGTQVTVSS,high polyreactivity
16,QVQLVESGGGLVQAGGSLRLSCAASGFTFRFYAMGWYRQAPGKETELVAAISSSGSRTYYADSVKGRFTISRDTAKNTVYFQMHSLKPEDTAVYYCNTVTSQDRYDYWGQGTHVTVSS,high polyreactivity
17,QVQLVESGGGLVQAGGSLRLSCAASGFTFRFYVMGWYRQAPGKERELVAAISKRGASTSYADSVKGRFTISRDNAKNTVYLQMNSLKPEDTAVYYCAASAKRGEMGYWGQGTQVTVSS,high polyreactivity
18,QVQLVESGGGLVQAGGSLRLSCAASGFTFRGNAMGWYRQAPGKERELVAAITRRGGSTYYADSVKGRFTISRDNAKNTVYLQMNSLKPEDTAVYYCARDSPRPPQSSRMAYWGQGTQVTVSS,high polyreactivity
19,QVQLVESGGGLVQAGGSLRLSCAASGFTFRGNAMGWYRQAPGKERELVAAITSSDDSTYYADSVKGRFTISRDYAKNTVYLQMNSLKPEDTAVYYCAAEGVHYAGDYGTGYDYWGQGTQVTVSS,low polyreactivity
20,QVQLVESGGGLVQAGGSLRLSCAASGFTFRGNVMGWYRQAPGKERELVAGISSTGSGRTYYADSVKGRFTISRDNAKNTVYLQMNSLKPEDTAVYYCAASRTLRKHRYEYWGQGTQVTVSS,high polyreactivity
21,QVQLVESGGGLVQAGGSLRLSCAASGFTFRGYAMGWYRQAPGKERELVASITYRGGSTYYADSVKGRFTISRDNAKNTVYLQMNSLKPEDTAVSYCNAGFGGRRRQDAFIGTSIYDYWGQCTQVTVSS,low polyreactivity
22,QVQLVESGGGLVQAGGSLRLSCAASGFTFRHNTMGWYRQAPGKERELVAAISIGGRTYYADSVKGRFTISRDNAKNTVYLQMNSLKTEDSAVYYCANLSGGQSPGYDYWGQGTQVTVSW,high polyreactivity

row,Sequence,polyreactivity (PSR sort gate)
1,QVQLVESGGGLVQAGGSLRLSCAASGFTFRHYAMGWYRQAPGKERELVAGITIRGTTYYADSVKGRFTISRDNAKNTVYLQMNSLKPEDTAVYYCAAAWRLGHLRFNSWGQGTQVTVSS,high polyreactivity
2,QVQLVESGGGLVQAGGSLRLSCAASGFTFRINAMGWYRQAPGKERELVAAISWSGGSTYYADSVKGRFTISRDNAKNTVYLQMNSLKPEDTAFYYCNKVQSSRYRSQRTFQYGYWGQGTQVTVSS,high polyreactivity
3,QVQLVESGGGLVQAGGSLRLSCAASGFTFRIYDMGWYRQAPGKERELVAAITNGGSTDYAYSVKGRFTISRDNAKNTVYLQMNSLKTEDNAVYYCAADVTYQVYDLVSVWYDYWGQGTQVTVSS,low polyreactivity
4,QVQLVESGGGLVQAGGSLRLSCAASGFTFRKNAKGWYRQAPGKERELVAAISSGSGSTYYADSVKGRFTISRDNAKNTVYLQMNSLKPEDNAVYYCNAEAYYTTGYPTSDVFDRYDYWGQGTQVTVSS,low polyreactivity
5,QVQLVESGGGLVQAGGSLRLSCAASGFTFRKNAMGWYRQAPGKERELVAAISSGTSTYYADSVKGRFTISRDNAKNTVYLQMNSLKPEDTAVYYCNAVSRKVYPGPMDYWGQGTQVTVSS,high polyreactivity
6,QVQLVESGGGLVQAGGSLRLSCAASGFTFRKYAMGWYRQAPGKERELVAGISWSGGTTYYADSVKGRFTISRDNAKNTVYLQMNSLKPEDTAVYYCNAKRVQVFAGYSYDYWGQGTQVTVSS,high polyreactivity
7,QVQLVESGGGLVQAGGSLRLSCAASGFTFRKYTMGWYRQAPGKERELVAAISSGFSTNYADSVKGRFTISRDNAKNSVYLQMNSLKPEDTAVYYCAARGGYYQGRYKYGYWGQGTQVTVSS,high polyreactivity
8,QVQLVESGGGLVQAGGSLRLSCAASGFTFRLYTMGWYRQAPGKDRELVAGISTSGGSTYYADSVKGRFTISRDNAKNTVYLQMNSLKPEDTAVYYCAAQAFTSYDYWGQGTQVTVSS,high polyreactivity
9,QVQLVESGGGLVQAGGSLRLSCAASGFTFRLYTMGWYRQAPGKERELVAAITYSGDSTYYADSVKGRFTISRDNAKNTVYLQMNSLKPEDTAVYYCAARKYYARYYWGQGTQVTVSS,high polyreactivity
10,QVQLVESGGGLVQAGGSLRLSCAASGFTFRLYVMGWYREAPGTERELVAALSSRGGSTYYADSVKGRFTISRDNAKYTVYLQMNRLKPDDTAFYYCAADRPRCRETVDYWGHGTQVTVSS,high polyreactivity
11,QVQLVESGGGLVQAGGSLRLSCAASGFTFRNYAMGWYRQAPGKEREFVAAISFSGGRTYYADSVKGRFTISRDNAKITVYLQMNSLKPEDTAVYFCAKKSYSKYEYWGQGTQVTVSS,low polyreactivity
12,QVQLVESGGGLVQAGGSLRLSCAASGFTFRNYAMGWYRQAPGKERELVAVIDWSGGRTYYADSVKGRFTISRDNAKNTVYLQMNSLKPEDTAVYYCNAVYGYRAYGGYGYWGQGTQVTVSS,high polyreactivity
13,QVQLVESGGGLVQAGGSLRLSCAASGFTFRQNAMGWYRQAPGKERELVAAISYSGGRTYYADSVKGRFTISRDNEMNTVYLQMNRLKPEDTAVYYCAVTYGIDYGYEYWGQGTQVTVSS,high polyreactivity
14,QVQLVESGGGLVQAGGSLRLSCAASGFTFRRNAMGWYRQAPGKEREFVAAITRSGGSTYYADSVKGRFTISRDNAKNTVYLQMNSLKPEDTAVYYCAADLPRWGSYGYGKMDHWGQGTQVTVSS,high polyreactivity
15,QVQLVESGGGLVQAGGSLRLSCAASGFTFRRNAMGWYRQAPGTERELVAAINVRDGSTYYADSVKGRFTISRDNAKNTVYVQMNSLKPEDTAVYYCAAEFFQGYYWYYYWGQGTQVTVSS,high polyreactivity
16,QVQLVESGGGLVQAGGSLRLSCAASGFTFRRYAMGWYRPAPGKERELVAAITPNGGSTYYADSVKGRFTISRDNAMNNFYLQMNRLKPEDTAVYYCNAVLYTPVYDGFDSWGQGTQVTVSS,high polyreactivity
17,QVQLVESGGGLVQAGGSLRLSCAASGFTFRRYAMGWYRQAPGKERELVAAINKSGGSTYYADSVKGRFTISRDNAKNTVYLQMNSLKPEDTAVYYCAKPLTAYSGFDHWGQGTQVTVSS,high polyreactivity
18,QVQLVESGGGLVQAGGSLRLSCAASGFTFRRYAMGWYRQAPGKERELVAAISGRGGSTYYADSVKGRFTISRDTAKNTVYLQINSLKPEDTAVYYCNDDRYVRWTPGDYWGQGTQVTVSS,high polyreactivity
19,QVQLVESGGGLVQAGGSLRLSCAASGFTFRRYAMGWYRQAPGKERELVAAISRSGGRTYYADSVKGRFTISRDNAKNTVYLQMNSLKPEDTAVYYCAARYFKPGGAYDSWGQGTQVTVSS,high polyreactivity
20,QVQLVESGGGLVQAGGSLRLSCAASGFTFRRYAMGWYRQAPGKERELVAAITYSGTRTYYADSVKGRFTISRDIAKNTVYLEMNSLSPEDTAVYYCNAGVGYFVGTYYGFLPYDYWGQGTQVTVSS,high polyreactivity
21,QVQLVESGGGLVQAGGSLRLSCAASGFTFRRYDMGWYRQAPGKERELVATINRGGSTDYADSVKGRFTISRDNAKNTVYLQLNSLKPEDTAVYYCATRYYSSRTWSEYYYWGQGTQVTVSS,high polyreactivity
